Where “and” joins values, the source holds several entries; their conditions need not be identical. Identical values can stand only once. Like-named read-outs stand apart in the source and are kept apart here.
Tested on: transcript levels in organs
Type: in vivo, cynomolgus monkey

B1: FGF23CTP: unique 75-mer COOH-terminal peptide of FGF-23, SEQ ID NO: 2 (peptide, listed as Homo sapiens)
chain: HTRSAEDDSERDPLNVLKPRARMTPAPASCSQELPSAEDNSPMASDPLGVVRGGRVNTHAGGTGPEGCRPFAKFI
- Gene expression level after 2 weeks, mean: EGF-response factor 1 (AV node): 1,819.7
- Gene expression level after 2 weeks, mean: Endothelial differentiation receptor 6 (AV node): 306.9
- Gene expression level after 2 weeks, mean: FLT receptor tyrosine kinase 1 (AV node): 120.1
- Gene expression level after 2 weeks, mean: Insulin-like growth factor II (AV node): 565.275
- Gene expression level after 2 weeks, mean: Insulin-like growth factor binding protein 2 (AV node): 880.75
- Gene expression level after 2 weeks, mean: Vascular endothelial growth factor-A (VEGFA) (AV node): 363.7
- Gene expression level after 2 weeks, mean: Activin A receptor type II (Adrenal): 58.5
- Gene expression level after 2 weeks, mean: Bone morphogenetic protein 1 (Adrenal): 210.6
- Gene expression level after 2 weeks, mean: Bone morphogenetic protein receptor, type II (Adrenal): 101.25
- Gene expression level after 2 weeks, mean: Cdk-inhibitor 1A p21 (Cip1) (Adrenal): 51.75
- Gene expression level after 2 weeks, mean: E2F-5 (Adrenal): 39.6
- Gene expression level after 2 weeks, mean: FGF receptor-1 (Adrenal): 624.2
- Gene expression level after 2 weeks, mean: FLK1 receptor tyrosine kinase (Adrenal): 42.7
- Gene expression level after 2 weeks, mean: VE-cadherin (Adrenal): 110.2
- Gene expression level after 2 weeks, mean: Colony-stimulating factor-1 (B marrow): 981.3
- Gene expression level after 2 weeks, mean: Insulin-like growth factor II (B marrow): 209.5
- Gene expression level after 2 weeks, mean: Angiopoietin-1 (Bone Marrow): 123.2
- Gene expression level after 2 weeks, mean: Cyclin E2 (Bone Marrow): 257
- Gene expression level after 2 weeks, mean: E2F dimerization partner 2 (DP2) (Bone Marrow): 1222
- Gene expression level after 2 weeks, mean: Endothelial differentiation receptor 4 (Bone Marrow): 494.8
- Gene expression level after 2 weeks, mean: Mdm2 (Bone Marrow): 20
- Gene expression level after 2 weeks, mean: TEK tyrosine kinase, angiopoietin receptor (Bone Marrow): 52.7
- Gene expression level after 2 weeks, mean: Bone morphogenetic protein 2A (Duodenum): 55.3
- Gene expression level after 2 weeks, mean: Cdk-inhibitor p57KIP2 (KIP2) (Duodenum): 138.6
- Gene expression level after 2 weeks, mean: Cyclin I (Duodenum): 900.6
- Gene expression level after 2 weeks, mean: FLT receptor tyrosine kinase 1 (Duodenum): 70.7
- Gene expression level after 2 weeks, mean: Farnesol receptor HRR-1 (Duodenum): 53.1
- Gene expression level after 2 weeks, mean: Cyclin-dependent kinase 5 (Hippocampus): 118.7
- Gene expression level after 2 weeks, mean: E2F-4 (Hippocampus): 153.4
- Gene expression level after 2 weeks, mean: Neuregulin 1 (Hippocampus): 86.075
- Gene expression level after 2 weeks, mean: Cyclin D3 (Muscle): 149.2
- Gene expression level after 2 weeks, mean: E2F-4 (Muscle): 643.8
- Gene expression level after 2 weeks, mean: Endothelial differentiation receptor 6 (Muscle): 181.9
- Gene expression level after 2 weeks, mean: Insulin-like growth factor I (Muscle): 107.65
- Gene expression level after 2 weeks, mean: Placental growth factor (Muscle): 91.4
- Gene expression level after 2 weeks, mean: Retinoid X receptor-gamma (Muscle): 580.9
- Gene expression level after 2 weeks, mean: Transforming growth factor β2 (Muscle): 58.3
- Gene expression level after 2 weeks, mean: p53 binding protein (Muscle): 138.7
- Gene expression level after 2 weeks, mean: Activin A receptor type II (ROHY): 54.9
- Gene expression level after 2 weeks, mean: Angiopoietin-1 (ROHY): 162.5
- Gene expression level after 2 weeks, mean: Brain-specific angiogenesis inhibitor 1 (MAS5) (ROHY): 225.1
- Gene expression level after 2 weeks, mean: Cdk-inhibitor p19 (ROHY): 267.8
- Gene expression level after 2 weeks, mean: Colony-stimulating factor-1 (ROHY): 802.5
- Gene expression level after 2 weeks, mean: Cyclin A/CDK2-associated p19 (Skp1) (ROHY): 1069.6
- Gene expression level after 2 weeks, mean: Cyclin D2 (ROHY): 197.1
- Gene expression level after 2 weeks, mean: Cyclin-dependent kinase 4 (ROHY): 197.6
- Gene expression level after 2 weeks, mean: E2F-4 (ROHY): 245.9
- Gene expression level after 2 weeks, mean: EPHB2v protein-tyrosine kinase (ROHY): 119.1
- Gene expression level after 2 weeks, mean: Epidermal growth factor receptor (ROHY): 103.1
- Gene expression level after 2 weeks, mean: FGF receptor-1 (ROHY): 932.4
- Gene expression level after 2 weeks, mean: Growth differentiation factor 1 (ROHY): 1,410.2
- Gene expression level after 2 weeks, mean: RalGDS/AF-6 (inhibitor of Cyclin D1) (ROHY): 300.5
- Gene expression level after 2 weeks, mean: Retinoblastoma 1 (ROHY): 467.9
- Gene expression level after 2 weeks, mean: Retinoblastoma binding protein 4 (ROHY): 164
- Gene expression level after 2 weeks, mean: Retinoid X receptor-beta (ROHY): 106.925
- Gene expression level after 2 weeks, mean: S-phase response (cyclin-related) (ROHY): 176
- Gene expression level after 2 weeks, mean: Transforming growth factor β3 (ROHY): 88.4
- Gene expression level after 2 weeks, mean: Tumour necrosis factor receptor-2 (ROHY): 126.4
- Gene expression level after 2 weeks, mean: VEGFB (ROHY): 626.2
- Gene expression level after 2 weeks, mean: Vascular endothelial growth factor-A (VEGFA) (ROHY): 326.175
- Gene expression level after 2 weeks, mean: p53 binding protein (ROHY): 154.7
- Gene expression level after 2 weeks, mean: S-phase response (cyclin-related) (Re atrium): 159.1
- Gene expression level after 2 weeks, mean: Activin A receptor type II (Retina): 34.1
- Gene expression level after 2 weeks, mean: Brain-specific angiogenesis inhibitor 2 (Retina): 153.2
- Gene expression level after 2 weeks, mean: Cyclin D2 (Retina): 132
- Gene expression level after 2 weeks, mean: Insulin-like growth factor binding protein 2 (Retina): 807.9
- Gene expression level after 2 weeks, mean: Cdk-inhibitor p57KIP2 (KIP2) (Thymus): 247.9
- Gene expression level after 2 weeks, mean: FGF receptor-1 (Thymus): 153.2
- Gene expression level after 2 weeks, mean: TNFR-related death receptor-3 (cynomolgus monkey, in vivo): 82.4
- Gene expression level after 2 weeks, mean: TNFR-related death receptor-6 (cynomolgus monkey, in vivo): 144.65 and 98.8
- Gene expression level after 2 weeks, mean: Bone morphogenetic protein 10 (kidney): 138.6
- Gene expression level after 2 weeks, mean: Colony-stimulating factor-1 (kidney): 659.75
- Gene expression level after 2 weeks, mean: E2F-1 (kidney): 198.5
- Gene expression level after 2 weeks, mean: E2F-4 (kidney): 741.6
- Gene expression level after 2 weeks, mean: Neuregulin 1 (kidney): 150.725
- Gene expression level after 2 weeks, mean: Bone morphogenetic protein 10 (liver): 134.1
- Gene expression level after 2 weeks, mean: EPHB2v protein-tyrosine kinase (liver): 82.6
- Gene expression level after 2 weeks, mean: Endothelial differentiation receptor 4 (liver): 391.7
- Gene expression level after 2 weeks, mean: Farnesol receptor HRR-1 (liver): 383.3
- Gene expression level after 2 weeks, mean: Insulin-like growth factor I (liver): 1,055.4
- Gene expression level after 2 weeks, mean: Insulin-like growth factor II (liver): 606.9
- Gene expression level after 2 weeks, mean: Insulin-like growth factor binding protein 1 (liver): 1,517
- Gene expression level after 2 weeks, mean: Insulin-like growth factor binding protein 2 (liver): 3,858.6
- Gene expression level after 2 weeks, mean: 14-3-3 protein tau (rostral hypothalamus): 1,748.5
- Gene expression level after 2 weeks, mean: Amyloid beta precursor protein (cytoplasmic tail)-binding protein 2 (rostral hypothalamus): 191.3
- Gene expression level after 2 weeks, mean: Anion exchanger (rostral hypothalamus): 844.5
- Gene expression level after 2 weeks, mean: Axl (rostral hypothalamus): 60.3
- Gene expression level after 2 weeks, mean: BAX (rostral hypothalamus): 134.4
- Gene expression level after 2 weeks, mean: Bcl-2-binding protein Nip3 (rostral hypothalamus): 794.8
- Gene expression level after 2 weeks, mean: Bmi-1 homeobox gene repressor (rostral hypothalamus): 374.7
- Gene expression level after 2 weeks, mean: CMP-sialic acid transporter (rostral hypothalamus): 135.075
- Gene expression level after 2 weeks, mean: CREB binding protein (rostral hypothalamus): 93
- Gene expression level after 2 weeks, mean: Ca2+-ATPase (rostral hypothalamus): 174.4
- Gene expression level after 2 weeks, mean: Calcineurin A1 (rostral hypothalamus): 173.975
- Gene expression level after 2 weeks, mean: Cholecystokinin A receptor (rostral hypothalamus): 196
- Gene expression level after 2 weeks, mean: Connexin 43 (rostral hypothalamus): 184.5
- Gene expression level after 2 weeks, mean: Delta 2 catenin (rostral hypothalamus): 118
- Gene expression level after 2 weeks, mean: Erk3 (rostral hypothalamus): 409.5
- Gene expression level after 2 weeks, mean: FYN (rostral hypothalamus): 958.1
- Gene expression level after 2 weeks, mean: GDP dissociation inhibitor beta (rostral hypothalamus): 125.8
- Gene expression level after 2 weeks, mean: Glycogen synthase kinase 3 (rostral hypothalamus): 155.5
- Gene expression level after 2 weeks, mean: Hypoxia-inducible factor 1 alpha (rostral hypothalamus): 286.5
- Gene expression level after 2 weeks, mean: Inhibitor of DNA binding 4 (rostral hypothalamus): 67.6
- Gene expression level after 2 weeks, mean: JNK2 (rostral hypothalamus): 79.9
- Gene expression level after 2 weeks, mean: Jagged 1 (rostral hypothalamus): 70.3
- Gene expression level after 2 weeks, mean: Janus kinase 1 (rostral hypothalamus): 43.3
- Gene expression level after 2 weeks, mean: Mnb (Minibrain) (rostral hypothalamus): 446
- Gene expression level after 2 weeks, mean: Myelin oligodendrocyte glycoprotein (rostral hypothalamus): 62.7
- Gene expression level after 2 weeks, mean: Myosin regulatory light chain (rostral hypothalamus): 177.2
- Gene expression level after 2 weeks, mean: NIPSNAP2 (glioblastoma co-amplified) (rostral hypothalamus): 118.7
- Gene expression level after 2 weeks, mean: Na,K-ATPase (rostral hypothalamus): 1,453.2
- Gene expression level after 2 weeks, mean: Neural cell adhesion molecule 1 (rostral hypothalamus): 988.6
- Gene expression level after 2 weeks, mean: Neurofibromin (rostral hypothalamus): 144
- Gene expression level after 2 weeks, mean: Oligodendrocyte myelin glycoprotein OMGP (rostral hypothalamus): 773.5
- Gene expression level after 2 weeks, mean: PKR Interferon-inducible (rostral hypothalamus): 128.25
- Gene expression level after 2 weeks, mean: Phosphodiesterase 4B (rostral hypothalamus): 60.6
- Gene expression level after 2 weeks, mean: Phosphoinositide 3-kinase (rostral hypothalamus): 241.5
- Gene expression level after 2 weeks, mean: Phosphoinositide-3-kinase, catalytic, delta polypeptide (rostral hypothalamus): 241.5
- Gene expression level after 2 weeks, mean: Phospholipase C (rostral hypothalamus): 72.1
- Gene expression level after 2 weeks, mean: Pim1 (rostral hypothalamus): 327.5
- Gene expression level after 2 weeks, mean: Pinin, Desmosome associated protein (rostral hypothalamus): 119.7
- Gene expression level after 2 weeks, mean: RAB1 (rostral hypothalamus): 143.9
- Gene expression level after 2 weeks, mean: RAB5 (rostral hypothalamus): 809.8
- Gene expression level after 2 weeks, mean: RAB11A (rostral hypothalamus): 344.9
- Gene expression level after 2 weeks, mean: RAB11B (rostral hypothalamus): 71.2
- Gene expression level after 2 weeks, mean: RAS p21 protein activator (rostral hypothalamus): 163
- Gene expression level after 2 weeks, mean: RNP24 (rostral hypothalamus): 558.2
- Gene expression level after 2 weeks, mean: Reticulon 4 (rostral hypothalamus): 1,309.2
- Gene expression level after 2 weeks, mean: Retinoic acid receptor (rostral hypothalamus): 110
- Gene expression level after 2 weeks, mean: Ribosomal protein kinase B (RSK-B) (rostral hypothalamus): 120
- Gene expression level after 2 weeks, mean: SFRS protein kinase 2 (rostral hypothalamus): 205.8
- Gene expression level after 2 weeks, mean: SNARE (rostral hypothalamus): 55.4
- Gene expression level after 2 weeks, mean: STAT1 (rostral hypothalamus): 119.3
- Gene expression level after 2 weeks, mean: Sodium/hydrogen exchanger (rostral hypothalamus): 785.5
- Gene expression level after 2 weeks, mean: Sphingomyelinase (rostral hypothalamus): 259.5
- Gene expression level after 2 weeks, mean: TYRO3 (rostral hypothalamus): 163.1
- Gene expression level after 2 weeks, mean: TrkB (rostral hypothalamus): 40.8
- Gene expression level after 2 weeks, mean: Tropomyosin 2 (beta) (rostral hypothalamus): 131.6
- Gene expression level after 2 weeks, mean: Tropomyosin 4 (rostral hypothalamus): 140.6
- Gene expression level after 2 weeks, mean: c-abl (rostral hypothalamus): 119.4
- Gene expression level after 2 weeks, mean: c-raf (rostral hypothalamus): 327.5
- Gene expression level after 2 weeks, mean: c-yes (rostral hypothalamus): 64.7
- Gene expression level after 2 weeks, mean: RalGDS/AF-6 (inhibitor of Cyclin D1) (second line, organ cell empty (below ROHY)): 354.5
